The record followed here is paper PMC12956587.

In the assay the target is WIN332 SOSIP Env trimer (HIV-1 strain BG505). As to the kind of experiment: SEC. In general terms: Size exclusion chromatography separates by hydrodynamic size, large species first.

One may read the stoichiometry N as a count of units in the complex or per binding partner. Substance WIN332 SOSIP Env trimer (complex) came in with a stoichiometry N of 3.
